This is an account of results in patent US20190263876A1 (published 2019).

Assay [1] deals with T1, GDF11 (UniProt O95390 299-407).
T1 construct: also called Growth and Differentiation Factor-11; BMP11
T1 sequence (looked up): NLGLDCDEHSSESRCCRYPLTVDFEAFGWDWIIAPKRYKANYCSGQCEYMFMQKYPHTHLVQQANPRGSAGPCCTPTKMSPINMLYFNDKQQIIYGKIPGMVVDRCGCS
Put plainly: BiaCore; ligand coupled to the device, receptor flowed.

The target in assay [2] is T1, GDF11. Put plainly: cell-based or functional assay.
Assay [3] addresses T2, Activin A (UniProt P08476).
T2 sequence (looked up): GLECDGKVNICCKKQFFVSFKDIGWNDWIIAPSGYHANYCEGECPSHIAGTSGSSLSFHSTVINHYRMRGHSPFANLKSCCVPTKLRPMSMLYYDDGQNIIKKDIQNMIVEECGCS
Put plainly: cell-based or functional assay.

The target of assay [4] is T1, GDF11. Put plainly: cell-based or functional assay. The source holds these as a separate data set.
Assay [5] has as its target T2, Activin A. Put plainly: cell-based or functional assay. This is another data set of the same source.

Read-outs that look alike come from different tables or passages of the source.

B1: Soluble ActRIIB-Fc +15tail (Fc fusion, not shown: a dimerising Fc or GST)
chain: SGRGEAETRECIYYNANWELERTNQSGLERCEGEQDKRLHCYASWANSSGTIELVKKGCWLDDFNCYDRQECVATEENPQVYFCCCEGNFCNERFTHLPEAGGPEVTYEPPPTAPT
As for B1, the Kd in assay [1] worked out at 19 nM.

B2: ActRIIB(20-131)-hFc (Fc fusion, not shown: a dimerising Fc or GST)
chain: GRGEAETRECIYYNANWELERTNQSGLERCEGEQDKRLHCYASWRNSSGTIELVKKGCWLDDFNCYDRQECVATEENPQVYFCCCEGNFCNERFTHLPEAGGPEVTYEPPPT
With B2, the IC50 (ng/mL), GDF-11, reporter assay, conditioned media turned out to be 120 ng/mL in assay [2] and 183 ng/mL in assay [4]. Also, the IC50 (ng/mL), Activin, reporter assay, conditioned media in assay [3] is 44 ng/mL; in assay [5], 201 ng/mL.

B3: ActRIIB(22-131)-hFc (Fc fusion, not shown: a dimerising Fc or GST)
chain: GEAETRECIYYNANWELERTNQSGLERCEGEQDKRLHCYASWRNSSGTIELVKKGCWLDDFNCYDRQECVATEENPQVYFCCCEGNFCNERFTHLPEAGGPEVTYEPPPT
Consider B3, for which the IC50 (ng/mL), GDF-11, reporter assay, conditioned media in assay [4] was determined as 71 ng/mL. This molecule had an IC50 (ng/mL), Activin, reporter assay, conditioned media in assay [5] of 100 ng/mL.

B4: ActRIIB(20-128)-hFc (Fc fusion, not shown: a dimerising Fc or GST)
chain: GRGEAETRECIYYNANWELERTNQSGLERCEGEQDKRLHCYASWRNSSGTIELVKKGCWLDDFNCYDRQECVATEENPQVYFCCCEGNFCNERFTHLPEAGGPEVTYEP
In the case of B4, in assay [2], the IC50 (ng/mL), GDF-11, reporter assay, conditioned media came to 130 ng/mL. In addition, in assay [3], the IC50 (ng/mL), Activin, reporter assay, conditioned media was determined as 158 ng/mL.

B5: ActRIIB(23-131)-hFc (Fc fusion, not shown: a dimerising Fc or GST)
chain: EAETRECIYYNANWELERTNQSGLERCEGEQDKRLHCYASWRNSSGTIELVKKGCWLDDFNCYDRQECVATEENPQVYFCCCEGNFCNERFTHLPEAGGPEVTYEPPPT
B5 displayed an IC50 (ng/mL), GDF-11, reporter assay, conditioned media in assay [4] of 60 ng/mL. For the same molecule, the IC50 (ng/mL), Activin, reporter assay, conditioned media in assay [5] came out at 43 ng/mL.

B6: ActRIIB(24-131)-hFc (Fc fusion, not shown: a dimerising Fc or GST)
chain: AETRECIYYNANWELERTNQSGLERCEGEQDKRLHCYASWRNSSGTIELVKKGCWLDDFNCYDRQECVATEENPQVYFCCCEGNFCNERFTHLPEAGGPEVTYEPPPT
In assay [4], B6 had an IC50 (ng/mL), GDF-11, reporter assay, conditioned media of 69 ng/mL. In addition, in assay [5], the IC50 (ng/mL), Activin, reporter assay, conditioned media stood at 105 ng/mL.

B7: ActRIIB-Fc A64 20-134 (Fc fusion, not shown: a dimerising Fc or GST)
chain: GRGEAETRECIYYNANWELERTNQSGLERCEGEQDKRLHCYASWANSSGTIELVKKGCWLDDFNCYDRQECVATEENPQVYFCCCEGNFCNERFTHLPEAGGPEVTYEPPPTAPT
As to B7, the GDF11 Inhibition Activity, cell-based assay (KI) in assay [2] is 1000 nM. The molecule further showed an Activin Inhibition Activity, cell-based assay (KI) in assay [3] of 1000 nM.

B8: ActRIIB(21-131)-hFc (Fc fusion, not shown: a dimerising Fc or GST)
chain: RGEAETRECIYYNANWELERTNQSGLERCEGEQDKRLHCYASWRNSSGTIELVKKGCWLDDFNCYDRQECVATEENPQVYFCCCEGNFCNERFTHLPEAGGPEVTYEPPPT
As for B8, the IC50 (ng/mL), GDF-11, reporter assay, conditioned media in assay [4] came to 121 ng/mL. The IC50 (ng/mL), Activin, reporter assay, conditioned media in assay [5] was 325 ng/mL.

B9: ActRIIB(20-132)-hFc (Fc fusion, not shown: a dimerising Fc or GST)
chain: GRGEAETRECIYYNANWELERTNQSGLERCEGEQDKRLHCYASWRNSSGTIELVKKGCWLDDFNCYDRQECVATEENPQVYFCCCEGNFCNERFTHLPEAGGPEVTYEPPPTA
In the case of B9, the IC50 (ng/mL), GDF-11, reporter assay, conditioned media in assay [2] is 87 ng/mL. This molecule registered an IC50 (ng/mL), Activin, reporter assay, conditioned media in assay [3] of 32 ng/mL.
